The target in series [1] is T1, Thermofilum pendens pyruvate kinase (TpPK) (Thermofilum pendens, UniProt A1RX09).
T1 construct: gene Tpen_0330; full-length with N-terminal His6 tag and TEV site (23 additional residues); homotetramer
Description: dead-end inhibition kinetics, LDH/NADH-coupled assay, […]°C, pH […]. Type of series: biochemical.

The target in series [2] is Thermofilum pendens pyruvate kinase (Thermofilum pendens). Description: native gel or EMSA; BN-PAGE, overnight at 4°C, 150 μg of TpPK; RMPK as molecular weight marker; native band of approximately 200 kDa.
Substrate in series [3]: C=C(OP(=O)(O)O)C(=O)O
Kind of series: purified protein. Particulars: Mg2+ active site; random-order binding with ADP-Mg.

Substrate in series [4]: Nc1ncnc2c1ncn2[C@@H]1O[C@H](COP(=O)(O)OP(=O)(O)O)[C@@H](O)[C@H]1O
Kind of series: initial velocity kinetics (Km), LDH/NADH-coupled assay. The settings on record: Mg2+ active site; random-order binding with PEP. Type of series: biochemical, Thermofilum pendens.

Like-named read-outs stand apart in the source and are kept apart here.

Consider `Nc1ncnc2c1ncn2[C@@H]1O[C@H](COP(=O)(O)O)[C@@H](O)[C@H]1O` [AMP], for which, in series [1] (read-out: K i (AMP)), the Ki came to 35 ± 1.2 mM.

On to `O=C(O)C(=O)O` [oxalate], for which, in series [1] (read-out: K i (oxalate)), the Ki worked out at 0.05 ± 0.002 mM.

Regarding “Thermofilum pendens pyruvate kinase (enzyme)”, the stoichiometry N in series [2] stood at 4.

B1: Thermofilum pendens pyruvate kinase (TpPK) (Thermofilum pendens Hrk 5) (protein)
chain: MAKVKLVATLGPSSWSEETMKRMVAEGVNAFRLNFSHVDYARFEELAKQVRRLETPLRPLTLIADLQGPVIRLGEFAPFQVRPGDRVTFTLSSKTEEKYAVPVPNGVFFEIVREGDEVLVEGGRLAFRIVDAGPEKAVGEALLEGEVKPRKTVTVRGKDIPLPTITEKDLRDIEFSVKAGFDAIALSFVRSSSDVQRLRDILFDYGAEDVKIIAKIETKSAVEDLDSILQKSDAALVARGDLANFYGLEEIYSIQRYIISRARRFGKPSIVATQLLESMISNPLPTRSEVVDVITAVRMGADALLLAGETAAGKYPVESVYWLRRIVEEAEREPLEVEDVAPDKSDLYESIAKGVVSLAEVISGKIIAFSEKGNTARRISKFRPKAGLIVFTNDPATARYVNMIYGVRVVYDPSLSKADQNLFSKMLSKALEHNLVNLGDLVVFTSGRRRGSTDLVSVERVKSE
notes: full-length with N-terminal His6 tag and TEV site (23 additional residues); homotetramer
With B1, the results for the Km in series [3] and in series [4] were 380 ± 30 µM and 160 ± 10 µM, respectively.

In general, stoichiometry N refers to the number of molecules, sites or subunits per partner or assembly. For orientation: Km means the concentration of substrate that gives half-maximal velocity.

The values are drawn from publication PMC4374775, “New Insights on the Mechanism of the K^+-Independent Activity of Crenarchaeota Pyruvate Kinases” (PLoS ONE, 2015).
